Experimental findings from publication PMC3705450 are described below.

Common to all, as to test: EMSA
(In general: In EMSA bound probe runs differently from free probe, usually more slowly.)

The target of series [1] is T1, LuxR (Vibrio harveyi, UniProt P21308 1-205).
T1 sequence: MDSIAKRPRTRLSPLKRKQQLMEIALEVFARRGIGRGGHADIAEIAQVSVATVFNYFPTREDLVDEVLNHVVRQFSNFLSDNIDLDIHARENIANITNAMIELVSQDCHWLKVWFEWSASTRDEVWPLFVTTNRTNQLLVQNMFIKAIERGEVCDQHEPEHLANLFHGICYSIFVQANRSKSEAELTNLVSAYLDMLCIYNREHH

For series [2], the target named is T2, LuxR T52M/I24V (Vibrio harveyi, UniProt P21308 1-205, T52M;I24V).
T2 sequence: T1 sequence with I24V, T52M

Series [3] has as its target T1, LuxR. This is another data set of the same source.
Series [4] deals with T1, LuxR. This is another data set of the same source.
The target of a further series is T3, LuxR L139P (Vibrio harveyi, UniProt P21308 1-205, L139P).
T3 sequence: T1 sequence with L139P

The target of series [5] is T4, LuxR N55I (Vibrio harveyi, UniProt P21308 1-205, N55I).
T4 sequence: T1 sequence with N55I

The target of series [6] is T4, LuxR N55I. The source holds these as a separate data set.
Series [7] deals with T1, LuxR. This is another data set of the same source.
Series [8] has as its target T1, LuxR. This is another data set of the same source.
Series [9] addresses T2, LuxR T52M/I24V. This is another data set of the same source.

Changes are numbered by the printed parent chain. Read-outs that look alike come from different tables or passages of the source.

B1: PluxC site 3 (dsDNA)
DNA 1: TTATTTAAATGATATAAATATAAATAACATCA
DNA 2: TGATGTTATTTATATTTATATCATTTAAATAA
A word on the Kd: it is a measure of binding affinity in units of concentration. In the series with LuxR [1], B1 returned a Kd of 0.6 nM.

B2: P05222 site 31mer (dsDNA)
DNA 1: CTAGTACTGACAAAAAAGTTAATATTTTGTT
DNA 2: AACAAAATATTAACTTTTTTGTCAGTACTAG
On to B2, for which the Kd with LuxR [1] is 0.7 nM; with LuxR T52M/I24V [2], 56.6 nM.

B3: aphA promoter BS* randomized 31mer (dsDNA)
DNA 1: TTTACGTTACTTGTTGGTAAATTTTATATAT
DNA 2: ATATATAAAATTTACCAACAAGTAACGTAAA
Regarding B3, in the series with LuxR [3], the binding result was “no binding”.

B4: P05222 28 bp (dsDNA)
DNA 1: CTAGTACTGACAAAAAAGTTAATATTTT
DNA 2: AAAATATTAACTTTTTTGTCAGTACTAG
Regarding B4, in the series with LuxR [4], the binding result is listed as “binds”.

B5: PluxC site 2 (dsDNA)
DNA 1: ACTAATTATAAATAAATCAAACTATAATTAGA
DNA 2: TCTAATTATAGTTTGATTTATTTATAATTAGT
For the molecule B5, the values for the binding result with LuxR L139P and in the series with LuxR N55I [5] were “binds” and “no binding”, respectively. The same molecule came in with a Kd with LuxR [1] of 103 nM.

B6: PluxC site 1 (dsDNA)
DNA 1: TTACTTATTTATAGTGTTACAAATAACATTA
DNA 2: TAATGTTATTTGTAACACTATAAATAAGTAA
As for B6, the binding result with LuxR N55I [6] is “binds”; with LuxR L139P it was “binds”; with LuxR T52M/I24V [2] it was “no binding”; in the series with LuxR [7], “binds”.

B7: P05222 site G to T + T to C (dsDNA)
DNA 1: GTGCAACAAAATATTGACTTTTTTGTCAGTAAGGATCCGGTGATTG
DNA 2: CAATCACCGGATCCTTACTGACAAAAAAGTCAATATTTTGTTGCAC
For the molecule B7, the binding result with LuxR [8] and in the series with LuxR T52M/I24V [9] was “binds” each time.
